From patent US20210171647A1 (WUXI BIOLOGICS SHANGHAI, published 2021)

What was measured:
Test in all cases: ELISA, antibody coated, OX40-ECD.His mutant supernatant; relative to silent alanine substitutions;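 note: captured OX40 mutant protein detected with HRP-labelled anti-His antibody, absorbance read-out, scaled to the mean signal of control mutants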
human OX40-ECD.His K96A = target: T1, human OX40-ECD.His K96A (human, UniProt P43489 29-214)
T1 construct: extracellular domain; not shown: C-terminal His-tag
T1 sequence (looked up): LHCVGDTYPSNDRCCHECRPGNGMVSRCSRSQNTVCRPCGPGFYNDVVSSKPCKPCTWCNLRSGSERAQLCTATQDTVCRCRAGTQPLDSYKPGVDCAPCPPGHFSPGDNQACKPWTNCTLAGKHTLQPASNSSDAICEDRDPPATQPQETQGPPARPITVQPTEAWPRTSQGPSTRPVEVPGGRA

human OX40-ECD.His L155A = target: T2, human OX40-ECD.His L155A (human, UniProt P43489 29-214)
T2 construct: extracellular domain; not shown: C-terminal His-tag
T2 sequence (looked up): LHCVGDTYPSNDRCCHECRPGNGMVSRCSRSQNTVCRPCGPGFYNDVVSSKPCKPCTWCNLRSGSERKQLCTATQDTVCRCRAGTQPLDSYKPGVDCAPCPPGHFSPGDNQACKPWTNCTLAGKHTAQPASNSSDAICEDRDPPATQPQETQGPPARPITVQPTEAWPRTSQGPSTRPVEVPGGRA

human OX40-ECD.His P121A = target: T3, human OX40-ECD.His P121A (human, UniProt P43489 29-214)
T3 construct: extracellular domain; not shown: C-terminal His-tag
T3 sequence (looked up): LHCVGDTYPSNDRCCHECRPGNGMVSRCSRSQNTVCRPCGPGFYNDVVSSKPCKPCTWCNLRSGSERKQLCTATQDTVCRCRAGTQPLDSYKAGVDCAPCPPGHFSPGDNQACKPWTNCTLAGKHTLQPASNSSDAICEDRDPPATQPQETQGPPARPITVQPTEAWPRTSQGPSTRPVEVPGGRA

human OX40-ECD.His D124A = target: T4, human OX40-ECD.His D124A (human, UniProt P43489 29-214)
T4 construct: extracellular domain; not shown: C-terminal His-tag
T4 sequence (looked up): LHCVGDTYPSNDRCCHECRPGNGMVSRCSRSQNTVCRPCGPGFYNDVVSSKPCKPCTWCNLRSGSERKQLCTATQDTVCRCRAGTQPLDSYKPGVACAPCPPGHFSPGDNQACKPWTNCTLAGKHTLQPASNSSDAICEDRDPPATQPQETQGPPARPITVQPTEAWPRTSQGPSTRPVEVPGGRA

human OX40-ECD.His D163A = target: T5, human OX40-ECD.His D163A (human, UniProt P43489 29-214)
T5 construct: extracellular domain; not shown: C-terminal His-tag
T5 sequence (looked up): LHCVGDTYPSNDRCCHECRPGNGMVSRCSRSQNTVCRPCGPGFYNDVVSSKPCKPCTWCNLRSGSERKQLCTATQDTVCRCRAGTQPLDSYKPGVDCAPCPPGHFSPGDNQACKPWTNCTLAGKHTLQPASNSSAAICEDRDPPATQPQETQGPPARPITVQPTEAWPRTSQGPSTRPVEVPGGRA

human OX40-ECD.His K152A = target: T6, human OX40-ECD.His K152A (human, UniProt P43489 29-214)
T6 construct: extracellular domain; not shown: C-terminal His-tag
T6 sequence (looked up): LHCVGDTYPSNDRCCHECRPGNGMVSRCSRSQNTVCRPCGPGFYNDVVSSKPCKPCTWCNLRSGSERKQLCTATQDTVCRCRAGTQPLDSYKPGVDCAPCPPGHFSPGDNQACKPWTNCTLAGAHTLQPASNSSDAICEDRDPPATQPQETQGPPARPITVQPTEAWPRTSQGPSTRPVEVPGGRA

human OX40-ECD.His R108A = target: T7, human OX40-ECD.His R108A (human, UniProt P43489 29-214)
T7 construct: extracellular domain; not shown: C-terminal His-tag
T7 sequence (looked up): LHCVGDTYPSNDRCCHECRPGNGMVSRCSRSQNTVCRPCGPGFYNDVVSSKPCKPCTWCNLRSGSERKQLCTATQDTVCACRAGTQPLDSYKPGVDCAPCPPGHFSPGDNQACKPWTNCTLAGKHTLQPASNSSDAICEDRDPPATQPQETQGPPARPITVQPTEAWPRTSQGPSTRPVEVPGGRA

human OX40-ECD.His Y72A = target: T8, human OX40-ECD.His Y72A (human, UniProt P43489 29-214)
T8 construct: extracellular domain; not shown: C-terminal His-tag
T8 sequence (looked up): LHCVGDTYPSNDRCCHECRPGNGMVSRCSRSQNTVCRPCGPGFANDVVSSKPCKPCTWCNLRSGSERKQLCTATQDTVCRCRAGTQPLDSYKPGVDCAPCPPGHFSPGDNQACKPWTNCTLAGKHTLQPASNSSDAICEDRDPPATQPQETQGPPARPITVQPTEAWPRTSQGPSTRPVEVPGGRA

human OX40-ECD.His P127A = target: T9, human OX40-ECD.His P127A (human, UniProt P43489 29-214)
T9 construct: extracellular domain; not shown: C-terminal His-tag
T9 sequence (looked up): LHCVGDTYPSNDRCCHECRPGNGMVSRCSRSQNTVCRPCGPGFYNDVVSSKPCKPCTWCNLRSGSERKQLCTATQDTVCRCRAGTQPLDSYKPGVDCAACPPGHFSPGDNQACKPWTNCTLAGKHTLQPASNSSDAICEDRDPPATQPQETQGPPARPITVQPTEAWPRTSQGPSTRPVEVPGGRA

human OX40-ECD.His V123A = target: T10, human OX40-ECD.His V123A (human, UniProt P43489 29-214)
T10 construct: extracellular domain; not shown: C-terminal His-tag
T10 sequence (looked up): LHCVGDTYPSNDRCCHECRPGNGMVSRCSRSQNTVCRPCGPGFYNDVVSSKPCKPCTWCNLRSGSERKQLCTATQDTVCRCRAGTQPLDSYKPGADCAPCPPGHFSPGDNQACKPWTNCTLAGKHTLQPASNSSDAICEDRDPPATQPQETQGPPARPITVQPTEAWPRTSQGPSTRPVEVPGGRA

B1: 1.134.9-u1-IgG1L (antibody, V domains shown)
VH: QVQLQESGPGLVKPSGTLSLTCAVSGGSISSYNWWSWVRQPPGKGLEWIGEIYHGGNTNYNPSLKSRVTMSVDNSKNQFSLKLSSVTAADTAVYYCARAPGDWGGSPYFDFWGQGTLVTVSS
VL: SSELTQDPAVSVALGQTVRITCQGDNLRTYYASWYQQKPGQAPILLIYGRNKRPSGIPDRFSGSSSGNTASLTITGAQAEDEAAYYCNSRDSSGNPVVFGGGTKLTVL
notes: fully human IgG1, lambda
Fold Change (human OX40-ECD.His K96A): 0.949
Fold Change (human OX40-ECD.His L155A): 0.959
Fold Change (human OX40-ECD.His P121A): 0.974
Fold Change (human OX40-ECD.His D124A): 0.989
Fold Change (human OX40-ECD.His D163A): 0.318
Fold Change (human OX40-ECD.His K152A): 0.81
Fold Change (human OX40-ECD.His R108A): 0.981
Fold Change (human OX40-ECD.His Y72A): 0.384
Fold Change (human OX40-ECD.His P127A): 0.953
Fold Change (human OX40-ECD.His V123A): 1
